From the supplement of paper PMC9112550, “Optimization of the antimicrobial peptide Bac7 by deep mutational scanning” (BMC Biology, 2022)

System: Escherichia coli TOP10
Assay: shrunken log2 fold change of peptide-encoding DNA abundance (4.5 h post-induction vs induction); higher = less antimicrobial activity (less host growth inhibition)
Conditions: time post-induction: 4.5 h; library: site-saturation at positions 5, 18, 19, 20
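Further: peptides expressed intracellularly from a pBAD plasmid library in pooled LB shake-flask culture, induced with 0.3% L-arabinose, DNA abundance read by NGS, three biological replicates, DESeq2 with apeglm shrinkage.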

How did the “shrunken log2 fold change” value turn out when RRIRPRPPRLPRPRPRPQWQPRP was run?
The value was -0.109.

For RRIRPRPPRLPRPRPRPQYLPRP, which “shrunken log2 fold change” value is on record?
Its value is -0.769.

RRIRPRPPRLPRPRPRPRATPRP was tested. Which “shrunken log2 fold change” value did it give?
The value was 0.261.

RRIRPRPPRLPRPRPRPRAVPRP was tested. Which “shrunken log2 fold change” value did it give?
Its value is 1.68.

With RRIRPRPPRLPRPRPRPRCVPRP as the sequence, how does the “shrunken log2 fold change” value read?
The value was 0.0965.

With RRIRPRPPRLPRPRPRPRDHPRP as the sequence, how does the “shrunken log2 fold change” value read?
The value was 0.279.

With RRIRPRPPRLPRPRPRPRDSPRP as the sequence, how does the “shrunken log2 fold change” value read?
Its value is 0.334.

RRIRPRPPRLPRPRPRPRDTPRP was tested. Which “shrunken log2 fold change” value did it give?
Its value is -0.0427.

For RRIRPRPPRLPRPRPRPRFAPRP, which “shrunken log2 fold change” value is on record?
Its value is 0.323.

RRIRPRPPRLPRPRPRPRFPPRP was tested. Which “shrunken log2 fold change” value did it give?
Its value is 0.233.

With RRIRPRPPRLPRPRPRPRFYPRP as the sequence, how does the “shrunken log2 fold change” value read?
Its value is 0.0111.

Which “shrunken log2 fold change” value does the source give for RRIRPRPPRLPRPRPRPRGHPRP here?
The value was 0.0129.

RRIRPRPPRLPRPRPRPRGLPRP was tested. Which “shrunken log2 fold change” value did it give?
The value was 0.198.

For RRIRPRPPRLPRPRPRPRGMPRP, which “shrunken log2 fold change” value is on record?
The value was 0.137.

With RRIRPRPPRLPRPRPRPRHFPRP as the sequence, how does the “shrunken log2 fold change” value read?
The value was 0.168.

How did the “shrunken log2 fold change” value turn out when RRIRPRPPRLPRPRPRPRHIPRP was run?
Its value is -0.0802.

For RRIRPRPPRLPRPRPRPRHVPRP, which “shrunken log2 fold change” value is on record?
Its value is 0.0494.

RRIRPRPPRLPRPRPRPRIYPRP was tested. Which “shrunken log2 fold change” value did it give?
The value was 0.0335.

Which “shrunken log2 fold change” value does the source give for RRIRPRPPRLPRPRPRPRKFPRP here?
The value was -0.188.

RRIRPRPPRLPRPRPRPRKWPRP was tested. Which “shrunken log2 fold change” value did it give?
The value was 0.671.

Which “shrunken log2 fold change” value does the source give for RRIRPRPPRLPRPRPRPRMCPRP here?
Its value is 0.152.

Which “shrunken log2 fold change” value does the source give for RRIRPRPPRLPRPRPRPRMWPRP here?
The value was 0.413.

Which “shrunken log2 fold change” value does the source give for RRIRPRPPRLPRPRPRPRNMPRP here?
The value was -0.126.

RRIRPRPPRLPRPRPRPRPAPRP was tested. Which “shrunken log2 fold change” value did it give?
Its value is 0.529.

Which “shrunken log2 fold change” value does the source give for RRIRPRPPRLPRPRPRPRPIPRP here?
The value was 0.27.

For RRIRPRPPRLPRPRPRPRQEPRP, which “shrunken log2 fold change” value is on record?
The value was 3.83.

For RRIRPRPPRLPRPRPRPRQMPRP, which “shrunken log2 fold change” value is on record?
The value was 0.184.

For RRIRPRPPRLPRPRPRPRQQPRP, which “shrunken log2 fold change” value is on record?
Its value is 0.13.

For RRIRPRPPRLPRPRPRPRRGPRP, which “shrunken log2 fold change” value is on record?
The value was 0.46.

With RRIRPRPPRLPRPRPRPRRPPRP as the sequence, how does the “shrunken log2 fold change” value read?
Its value is 0.489.

RRIRPRPPRLPRPRPRPRRQPRP was tested. Which “shrunken log2 fold change” value did it give?
The value was 0.673.

RRIRPRPPRLPRPRPRPRRWPRP was tested. Which “shrunken log2 fold change” value did it give?
Its value is 0.56.

With RRIRPRPPRLPRPRPRPRSNPRP as the sequence, how does the “shrunken log2 fold change” value read?
Its value is -0.247.

Which “shrunken log2 fold change” value does the source give for RRIRPRPPRLPRPRPRPRTVPRP here?
Its value is 0.322.

How did the “shrunken log2 fold change” value turn out when RRIRPRPPRLPRPRPRPRYAPRP was run?
The value was 0.0891.

RRIRPRPPRLPRPRPRPRYSPRP was tested. Which “shrunken log2 fold change” value did it give?
Its value is -0.354.

Which “shrunken log2 fold change” value does the source give for RRIRPRPPRLPRPRPRPRYYPRP here?
Its value is -0.385.

How did the “shrunken log2 fold change” value turn out when RRIRPRPPRLPRPRPRPSDNPRP was run?
The value was -0.449.

With RRIRPRPPRLPRPRPRPSELPRP as the sequence, how does the “shrunken log2 fold change” value read?
Its value is 0.0666.

Which “shrunken log2 fold change” value does the source give for RRIRPRPPRLPRPRPRPSENPRP here?
Its value is -0.0512.

With RRIRPRPPRLPRPRPRPSFEPRP as the sequence, how does the “shrunken log2 fold change” value read?
The value was -0.102.

How did the “shrunken log2 fold change” value turn out when RRIRPRPPRLPRPRPRPSFQPRP was run?
Its value is 0.0876.

With RRIRPRPPRLPRPRPRPSGGPRP as the sequence, how does the “shrunken log2 fold change” value read?
Its value is 0.191.

With RRIRPRPPRLPRPRPRPSGMPRP as the sequence, how does the “shrunken log2 fold change” value read?
The value was -0.183.

Which “shrunken log2 fold change” value does the source give for RRIRPRPPRLPRPRPRPSHAPRP here?
Its value is -0.166.

With RRIRPRPPRLPRPRPRPSHPPRP as the sequence, how does the “shrunken log2 fold change” value read?
Its value is -0.03.

For RRIRPRPPRLPRPRPRPSHTPRP, which “shrunken log2 fold change” value is on record?
The value was -0.0343.

Which “shrunken log2 fold change” value does the source give for RRIRPRPPRLPRPRPRPSIFPRP here?
The value was -0.284.

Which “shrunken log2 fold change” value does the source give for RRIRPRPPRLPRPRPRPSIIPRP here?
The value was -0.634.

How did the “shrunken log2 fold change” value turn out when RRIRPRPPRLPRPRPRPSLLPRP was run?
The value was -0.205.

RRIRPRPPRLPRPRPRPSLYPRP was tested. Which “shrunken log2 fold change” value did it give?
Its value is -0.326.

Which “shrunken log2 fold change” value does the source give for RRIRPRPPRLPRPRPRPSPKPRP here?
Its value is 0.218.

For RRIRPRPPRLPRPRPRPSQSPRP, which “shrunken log2 fold change” value is on record?
Its value is -0.0693.

How did the “shrunken log2 fold change” value turn out when RRIRPRPPRLPRPRPRPSRMPRP was run?
The value was -0.114.

For RRIRPRPPRLPRPRPRPSSQPRP, which “shrunken log2 fold change” value is on record?
The value was -0.201.

How did the “shrunken log2 fold change” value turn out when RRIRPRPPRLPRPRPRPSTDPRP was run?
The value was -0.207.

RRIRPRPPRLPRPRPRPSVPPRP was tested. Which “shrunken log2 fold change” value did it give?
Its value is -0.166.

RRIRPRPPRLPRPRPRPSVTPRP was tested. Which “shrunken log2 fold change” value did it give?
The value was -0.385.

How did the “shrunken log2 fold change” value turn out when RRIRPRPPRLPRPRPRPTEFPRP was run?
The value was -0.268.

For RRIRPRPPRLPRPRPRPTEWPRP, which “shrunken log2 fold change” value is on record?
Its value is 0.0519.

How did the “shrunken log2 fold change” value turn out when RRIRPRPPRLPRPRPRPTFTPRP was run?
Its value is 0.101.

Which “shrunken log2 fold change” value does the source give for RRIRPRPPRLPRPRPRPTFYPRP here?
Its value is -0.235.

Which “shrunken log2 fold change” value does the source give for RRIRPRPPRLPRPRPRPTGGPRP here?
Its value is 0.392.

How did the “shrunken log2 fold change” value turn out when RRIRPRPPRLPRPRPRPTHAPRP was run?
Its value is 0.131.

RRIRPRPPRLPRPRPRPTHRPRP was tested. Which “shrunken log2 fold change” value did it give?
Its value is 0.223.

With RRIRPRPPRLPRPRPRPTHSPRP as the sequence, how does the “shrunken log2 fold change” value read?
The value was 0.185.

How did the “shrunken log2 fold change” value turn out when RRIRPRPPRLPRPRPRPTIGPRP was run?
The value was -0.128.

For RRIRPRPPRLPRPRPRPTINPRP, which “shrunken log2 fold change” value is on record?
The value was -0.51.

For RRIRPRPPRLPRPRPRPTIPPRP, which “shrunken log2 fold change” value is on record?
The value was -0.361.

For RRIRPRPPRLPRPRPRPTKVPRP, which “shrunken log2 fold change” value is on record?
Its value is -0.0777.

With RRIRPRPPRLPRPRPRPTLQPRP as the sequence, how does the “shrunken log2 fold change” value read?
Its value is 0.353.

With RRIRPRPPRLPRPRPRPTNDPRP as the sequence, how does the “shrunken log2 fold change” value read?
Its value is -0.00332.

For RRIRPRPPRLPRPRPRPTNHPRP, which “shrunken log2 fold change” value is on record?
Its value is -0.134.

With RRIRPRPPRLPRPRPRPTNLPRP as the sequence, how does the “shrunken log2 fold change” value read?
The value was -0.107.

RRIRPRPPRLPRPRPRPTQEPRP was tested. Which “shrunken log2 fold change” value did it give?
The value was 0.617.
